T1: SERF (Small ERDK-Rich Factor) (Saccharomyces cerevisiae, UniProt Q3E7B7)
T1 sequence: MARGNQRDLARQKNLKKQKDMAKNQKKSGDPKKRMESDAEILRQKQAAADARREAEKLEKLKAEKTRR


Molecular target: T1, SERF (Small ERDK-Rich Factor)
Experiment: fluorescence anisotropy; 1:1 model, KD,app; Anisotropy buffer not given in the material; NMR at 27 C; native IM-MS in 100 mM ammonium acetate pH 7.5
Conditions: protein: recombinant, tags: His6-SUMO removed by ULP1 (scarless)

Binder	Kd (single strand)	Kd (hairpin with UCU bulge and hexanucleotide loop)
UUUUUUUUUUUUUUUUUUUUUUUUUUUUUU (ssRNA) [FAM-(rU)30]	1900 ± 200 nM	–
GGCAGAUCUGAGCCUGGGAGCUCUCUGCC (structured_RNA) [FAM-TAR]	–	670 ± 40 nM

From article PMC11626198, “Molecular insights into the interaction between a disordered protein and a folded RNA”
